Our source for the tissue uptake and IC50 values is paper PMC6321344, “Evaluation of [^68Ga]Ga-DOTA-TCTP-1 for the Detection of Metalloproteinase 2/9 Expression in Mouse Atherosclerotic Plaques” (Molecules, 2018).

Positions of bridges follow the written chain, without caps; N, C: chain ends. Residues, ends and D or L forms follow the SMILES beside them. *: point of attachment. X1 = O=C(O)CN1CCN(CC(=O)O)CCN(CC(=O)NCCOCCOCCN*)CCN(CC(=O)O)CC1

Data set [1] in a line: in vivo. As to conditions: both sexes, C57BL/6N, mouse, iv, 18 MBq, total radioactivity, Tracer uptake. From the text: (§1) Sixteen (eleven males, five females) low-density lipoprotein receptor deficient mice expressing only apolipoprotein B100 (LDLR^-/-ApoB^100/100, Jackson Laboratory, Bar Harbor, ME, USA, strain #003000) were used. Mice were kept on a Western-type diet for 4.4 months starting at the age of 3.5 months. Forty-two percent of their calorific intake consisted of fat and 0.2% cholesterol (TD 88137, Harlan Teklad, Harlan Laboratories, Madison, WI, USA). Nine C57BL/6N mice on a regular chow diet (five males, four females) were used as controls. The mean age and weight of the studied mice at the time of tracer injection were 8.2 ± 0.70 months and 38 ± 8.0 g for the LDLR^-/-ApoB^100/100 mice, and 3.9 ± 0.86 months and 31 ± 5.8 g for the controls. During the studies, mice were housed under standard conditions (light and humidity) with ad libitum access to water and food. The study protocol was approved by the National Animal Experiment Board in Finland and the Regional State Administrative Agency for Southern Finland, and carried out in compliance with the relevant European Union directives. The high-performance liquid chromatography (HPLC) system was a LaChrom instrument (Hitachi; Merck Darmstadt, Germany), including a pump L7100, an ultraviolet (UV) detector L-7400, an interface D-7000 and a computerized data acquisition and processing software. The reversed-phase HPLC column (μBondapak 10 μm C18, 7.8 × 300 mm, pore size 125 Å) was purchased from Waters Corporation, Milford, MA, USA. The online radioisotope detector (Radiomatic 150 TR, Flow Scintillation Analyzer) was from Packard, Meriden, CT, USA. The precursor compound DOTA-TCTP-1 (Figure 1) was obtained as a custom synthesis from Peptide Specialty Laboratories GmbH (Heidelberg, Germany).
(§2) Isoflurane anesthetized mice were intravenously (i.v.) injected with 18 ± 2.7 MBq (in 50–100 µL) of [^68Ga]Ga-DOTA-TCTP-1 via the tail vein. At 60 min after tracer injection, a blood sample was obtained by cardiac puncture and animals were killed by cervical dislocation. Various tissues were excised, weighed, and measured for radioactivity on a gamma counter (Triathler 3”, Hidex, Turku, Finland). Radioactivity values were normalized by the injected radioactivity dose decay with a delta time between injection and measurement, animal weight, and the weight of tissue. Results are expressed as the percentage of injected radioactivity dose per gram of tissue (%ID/g).

Data set [2] can be described thus: in vivo. Particulars: LDLR^-/-ApoB^100/100, mouse, iv, 11 MBq, total radioactivity. Here is the method:
A subset of mice (three atherosclerotic and three healthy controls) were imaged using a small-animal PET/computed tomography (CT) scanner (Inveon Multimodality; Siemens Medical Solutions, Knoxville, TN, USA). The mice were anesthetized using 1.5% isoflurane, and their temperature was maintained using a heating pad throughout the imaging. Mice were i.v. injected with 11 ± 0.86 MBq (in 50–100 µL) of [^68Ga]Ga-DOTA-TCTP-1 via the tail vein. PET data were acquired in a list-mode for 60 min, starting from the time of injection of [^68Ga]Ga-DOTA-TCTP-1. The images were reconstructed using an ordered-subset expectation maximization 2D algorithm with four iterations into 30 × 3 s, 9 × 10 s, 4 × 30 s, 5 × 60 s, and […] time frames. Immediately after the PET scan, 100 µL of intravascular iodinated contrast agent eXIATM160XL (Binitio Biomedical Inc., Ottawa, ON, Canada) was injected and high-resolution CT was acquired (80 kV, 500 μA). CT images were reconstructed using a Feldkamp-based algorithm, and images were analyzed using Carimas v.2.6 software (Turku PET Centre, Turku, Finland). ROIs were drawn in the aortic arch, blood pool (inside the LV cavity), and several relevant organs, according to the high-resolution CT image. Results are reported as the percentage of injected dose per gram (%ID/g) as a function of the time after injection, i.e., as time-activity curves.

A short description of data set [3]: in vivo. Also noted: species or system mouse. As to conditions: both sexes, iv, 18 MBq, total radioactivity, Tracer uptake.
Excerpt: as §1, §2

Data set [4] deals with MMP-2/9. As to conditions: quoted with the dose of the commercial inhibitor; ref product number 444251, Merck KGaA; cited from earlier work.

In general, tissue uptake refers to the percentage of the injected dose found per gram of tissue. Regarding `CC(C)C[C@@H]1NC(=O)[C@@H](NC(=O)[C@H](C)NC(=O)CN)CSSC[C@@H](C(=O)NCC(=O)NCCOCCOCCNC(=O)CN2CCN(CC(=O)O)CCN(CC(=O)O)CCN(CC(=O)O)CC2)NC(=O)CNC(=O)[C@H](CCCNC(=N)N)NC(=O)CNC(=O)[C@H](CO)NC(=O)[C@H](CCCNC(=N)N)NC1=O` [[^68Ga]Ga-DOTA-TCTP-1, metal not drawn] (H-GACLRSGRGCG-X1; disulfide 3-10), the tissue uptake at 1 h in data set [1] (Aorta) is 0.52 ± 0.25 %ID/g; in data set [1] (Blood), 0.69 ± 0.21 %ID/g; in data set [1] (Bone), 0.63 ± 0.5 %ID/g; in data set [1] (Heart), 0.16 ± 0.066 %ID/g; in data set [1] (Intestine) it was 0.43 ± 0.18 %ID/g; in data set [1] (Kidneys) it was 8.9 ± 3.6 %ID/g. The tissue uptake at 1 h in data set [1] (Liver) amounted to 3.2 ± 1.6 %ID/g; in data set [1] (Lungs), 1.3 ± 0.74 %ID/g; in data set [1] (Lymph node) it was 0.48 ± 0.19 %ID/g; in data set [1] (Pancreas) it was 0.17 ± 0.056 %ID/g; in data set [1] (Plasma), 1.5 ± 1 %ID/g; in data set [1] (Salivary gland) it was 0.23 ± 0.07 %ID/g. The tissue uptake at 1 h came out at 0.17 ± 0.13 %ID/g in data set [1] (Skeletal muscle); 1.7 ± 1.3 %ID/g in data set [1] (Spleen); 0.23 ± 0.07 %ID/g in data set [1] (Thymus); 0.17 ± 0.11 %ID/g in data set [1] (WAT (white adipose tissue)); 0.81 ± 0.3 %ID/g in data set [2] (Radioactivity in myocardium (PET/CT)); 0.77 ± 0.16 %ID/g in data set [2] (Uptake in atherosclerotic aorta (PET/CT)). In addition, the tissue uptake at 1 h in data set [2] (Uptake in blood pool (PET/CT)) worked out at 1.1 ± 0.64 %ID/g; in data set [2] (Uptake in liver (PET/CT)), 4.7 ± 3.8 %ID/g; in data set [3] (LDLR-/-ApoB100/100, mouse, Bone), 0.53 ± 0.37 %ID/g; in data set [3] (LDLR-/-ApoB100/100, mouse, Heart) it was 0.23 ± 0.083 %ID/g; in data set [3] (LDLR-/-ApoB100/100, mouse, Intestine), 0.59 ± 0.22 %ID/g; in data set [3] (LDLR-/-ApoB100/100, mouse, Kidneys), 8 ± 2.9 %ID/g. Moreover, the tissue uptake at 1 h in data set [3] (LDLR-/-ApoB100/100, mouse, Liver) is 1.8 ± 0.48 %ID/g; in data set [3] (LDLR^-/-ApoB^100/100, mouse, Aorta), 0.43 ± 0.19 %ID/g; in data set [3] (LDLR^-/-ApoB^100/100, mouse, Blood), 1.3 ± 0.4 %ID/g; in data set [3] (LDLR^-/-ApoB^100/100, mouse, Lungs) it was 2.8 ± 1.6 %ID/g; in data set [3] (LDLR^-/-ApoB^100/100, mouse, Lymph node) it was 0.49 ± 0.15 %ID/g; in data set [3] (LDLR^-/-ApoB^100/100, mouse, Pancreas), 0.35 ± 0.17 %ID/g. For the same compound, the tissue uptake at 1 h turned out to be 2.6 ± 1.4 %ID/g in data set [3] (LDLR^-/-ApoB^100/100, mouse, Plasma); 0.38 ± 0.15 %ID/g in data set [3] (LDLR^-/-ApoB^100/100, mouse, Salivary gland); 0.19 ± 0.077 %ID/g in data set [3] (LDLR^-/-ApoB^100/100, mouse, Skeletal muscle); 1.9 ± 1.6 %ID/g in data set [3] (LDLR^-/-ApoB^100/100, mouse, Spleen); 0.35 ± 0.29 %ID/g in data set [3] (LDLR^-/-ApoB^100/100, mouse, Thymus); 0.17 ± 0.21 %ID/g in data set [3] (LDLR^-/-ApoB^100/100, mouse, WAT (white adipose tissue)).
Usually IC50 stands for the concentration that inhibits the measured activity by half. In the case of “H-Cys^1-Thr-Thr-His-Trp-Gly-Phe-Thr-Leu-Cys^10-OH (cyclic: 1→10) (disulfide) [MMP-2/9 inhibitor]”, the IC50 in data set [4] was 10 µM.
